# Assay results reported in the supplement of paper PMC10567573.
# B1: POMT2 (parent)
# chain: YHEAPMTRKHYQVTGYGINGTGDS
# Variants of: B1
# Assay: protein stability index of a GFP-peptide fusion (GPS, HEK-293T) (PSI 1-6); higher = more stable
# Conditions: c terminus: a fixed tail appended
# 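Also: lentivirally expressed fusions sorted by FACS into six bins by GFP to DsRed ratio, PSI derived from sequencing read proportions per bin multiplied by bin number.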
row,Variant,protein stability index
1,YHEAPMTRKHYQVTFYGINGTGDS [G15F],1.19
2,YHEAPMTRKHYQVTIYGINGTGDS [G15I],1.59
3,YHEAPMTRKHYQVTCYGINGTGDS [G15C],2.01
4,YHEAPMTRKHYQVTEYGINGTGDS [G15E],3.36
5,YHEAPMTRKHYQVTHYGINGTGDS [G15H],2.63
6,YHEAPMTRKHYQVTDYGINGTGDS [G15D],2.31
7,YHEAPMTRKHYQVTAYGINGTGDS [G15A],2.25
8,YHEAPLTRKHYQVTGYGINGTGDS [M6L],2.41
9,YHEAPFTRKHYQVTGYGINGTGDS [M6F],1.82
10,YHEAPETRKHYQVTGYGINGTGDS [M6E],2.56
11,YHEAPITRKHYQVTGYGINGTGDS [M6I],2.83
12,YHEAPQTRKHYQVTGYGINGTGDS [M6Q],2.68
13,YHEAPHTRKHYQVTGYGINGTGDS [M6H],1.69
14,YHEAPCTRKHYQVTGYGINGTGDS [M6C],2
15,YHEAPATRKHYQVTGYGINGTGDS [M6A],2.48
16,YHEAPDTRKHYQVTGYGINGTGDS [M6D],2.36
17,YHEAPSTRKHYQVTGYGINGTGDS [M6S],2.59
18,YHEAPWTRKHYQVTGYGINGTGDS [M6W],1.42
19,YHEAPVTRKHYQVTGYGINGTGDS [M6V],2.67
20,YHEAPNTRKHYQVTGYGINGTGDS [M6N],2.15
21,YHEAPYTRKHYQVTGYGINGTGDS [M6Y],1.98
22,YHEAPPTRKHYQVTGYGINGTGDS [M6P],2.55
23,YHEAPGTRKHYQVTGYGINGTGDS [M6G],2.38
24,YHEAPTTRKHYQVTGYGINGTGDS [M6T],2.43

row,Variant,protein stability index
1,YHEAPRTRKHYQVTGYGINGTGDS [M6R],2.7
2,YHEAPKTRKHYQVTGYGINGTGDS [M6K],2.55
3,YHEAPMTRFHYQVTGYGINGTGDS [K9F],2.13
4,YHEAPMTRYHYQVTGYGINGTGDS [K9Y],1.76
5,YHEAPMTRNHYQVTGYGINGTGDS [K9N],2.47
6,YHEAPMTRHHYQVTGYGINGTGDS [K9H],1.84
7,YHEAPMTRVHYQVTGYGINGTGDS [K9V],2.35
8,YHEAPMTRCHYQVTGYGINGTGDS [K9C],2.42
9,YHEAPMTRAHYQVTGYGINGTGDS [K9A],2.31
10,YHEAPMTRDHYQVTGYGINGTGDS [K9D],3.42
11,YHEAPMTRIHYQVTGYGINGTGDS [K9I],2.12
12,YHEAPMTRRHYQVTGYGINGTGDS [K9R],1.87
13,YHEAPMTRSHYQVTGYGINGTGDS [K9S],2.29
14,YHEAPMTRMHYQVTGYGINGTGDS [K9M],2.3
15,YHEAPMTRWHYQVTGYGINGTGDS [K9W],2.07
16,YHEAPMTRTHYQVTGYGINGTGDS [K9T],2.7
17,YHEAPMTRGHYQVTGYGINGTGDS [K9G],2.51
18,YHEAPMTRQHYQVTGYGINGTGDS [K9Q],2.9
19,YHEAPMTRLHYQVTGYGINGTGDS [K9L],1.97
20,YHEAPMTRPHYQVTGYGINGTGDS [K9P],2.76
21,YHEAPMTREHYQVTGYGINGTGDS [K9E],3.29
22,YHEAPMTRKHYKVTGYGINGTGDS [Q12K],2.24
23,YHEAPMTRKHYRVTGYGINGTGDS [Q12R],1.88
24,YHEAPMTRKHYFVTGYGINGTGDS [Q12F],2.28

row,Variant,protein stability index
1,YHEAPMTRKHYWVTGYGINGTGDS [Q12W],1.91
2,YHEAPMTRKHYTVTGYGINGTGDS [Q12T],2.16
3,YHEAPMTRKHYVVTGYGINGTGDS [Q12V],2.36
4,YHEAPMTRKHYAVTGYGINGTGDS [Q12A],1.96
5,YHEAPMTRKHYCVTGYGINGTGDS [Q12C],2.08
6,YHEAPMTRKHYSVTGYGINGTGDS [Q12S],2.22
7,YHEAPMTRKHYHVTGYGINGTGDS [Q12H],2.07
8,YHEAPMTRKHYGVTGYGINGTGDS [Q12G],2.08
9,YHEAPMTRKHYPVTGYGINGTGDS [Q12P],2.37
10,YHEAPMTRKHYEVTGYGINGTGDS [Q12E],2.41
11,YHEAPMTRKHYIVTGYGINGTGDS [Q12I],1.97
12,YHEAPMTRKHYNVTGYGINGTGDS [Q12N],2.85
13,YHEAPMTRKHYYVTGYGINGTGDS [Q12Y],2.46
14,YHEAPMTRKHYLVTGYGINGTGDS [Q12L],2.29
15,YHEAPMTRKHYDVTGYGINGTGDS [Q12D],3.05
16,YHEAPMTRKHYMVTGYGINGTGDS [Q12M],2.34
17,YHEAPMTRKHRQVTGYGINGTGDS [Y11R],2.56
18,YHEAPMTRKHTQVTGYGINGTGDS [Y11T],3.17
19,YHEAPMTRKHGQVTGYGINGTGDS [Y11G],3.23
20,YHEAPMTRKHPQVTGYGINGTGDS [Y11P],3.14
21,YHEAPMTRKHMQVTGYGINGTGDS [Y11M],2.98
22,YHEAPMTRKHNQVTGYGINGTGDS [Y11N],3.15
23,YHEAPMTRKHIQVTGYGINGTGDS [Y11I],2.77
24,YHEAPMTRKHLQVTGYGINGTGDS [Y11L],2.75

row,Variant,protein stability index
1,YHEAPMTRKHEQVTGYGINGTGDS [Y11E],3.98
2,YHEAPMTRKHAQVTGYGINGTGDS [Y11A],3.38
3,YHEAPMTRKHKQVTGYGINGTGDS [Y11K],3.14
4,YHEAPMTRKHSQVTGYGINGTGDS [Y11S],3.03
5,YHEAPMTRKHHQVTGYGINGTGDS [Y11H],2.93
6,YHEAPMTRKHWQVTGYGINGTGDS [Y11W],1.7
7,YHEAPMTRKHDQVTGYGINGTGDS [Y11D],3.77
8,YHEAPMTRKHVQVTGYGINGTGDS [Y11V],3.22
9,YHEAPMTRKHQQVTGYGINGTGDS [Y11Q],3.57
10,YHEAPMTRKHCQVTGYGINGTGDS [Y11C],3.06
11,YHEAPMTRKHFQVTGYGINGTGDS [Y11F],2.01
12,YHEAPMTRKHYQYTGYGINGTGDS [V13Y],2.97
13,YHEAPMTRKHYQGTGYGINGTGDS [V13G],2.52
14,YHEAPMTRKHYQMTGYGINGTGDS [V13M],2.59
15,YHEAPMTRKHYQATGYGINGTGDS [V13A],2.76
16,YHEAPMTRKHYQRTGYGINGTGDS [V13R],3.24
17,YHEAPMTRKHYQCTGYGINGTGDS [V13C],2.14
18,YHEAPMTRKHYQSTGYGINGTGDS [V13S],3.32
19,YHEAPMTRKHYQQTGYGINGTGDS [V13Q],3.11
20,YHEAPMTRKHYQTTGYGINGTGDS [V13T],2.6
21,YHEAPMTRKHYQNTGYGINGTGDS [V13N],2.65
22,YHEAPMTRKHYQDTGYGINGTGDS [V13D],3.46
